Experiment: yeast display, Sf9 membrane polyspecificity reagent, FACS + sequencing; frameworks hold sequencing errors
Outline: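 Nanobodies from a synthetic yeast display library (Saccharomyces cerevisiae BJ5465), induced 36–48 hours with galactose, were stained 1 hour at 4 °C with 10% biotinylated, detergent-solubilized Sf9 membrane reagent, enriched on streptavidin microbeads, then FACS-sorted. Anti-HA (expression) and streptavidin (reagent binding) fluorescence set low and high (top ~1%) gates. Polyreactivity labels come from the gate of origin. Genes were colony-PCR amplified, MiSeq 2 × 250 sequenced and filtered by CDR length.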

Sequence	polyreactivity (PSR sort gate)
QVQLVESGGGLVQAGGSLRLSCAASGSIFGVNAMGWYRQAPGKERELVAAISNSGVRKYYADSVKGRFTISRDNAKNTVYLQMNSLKPEDTAVYYCARTYQVGDSIDDYWGQGTQVTVSP	low polyreactivity
QVQLVESGGGLVQAGGSLRLSCAASGSIFGVYVMGWYRQAPGKERELVAAITRGASTNYADSVKGRFTISRDNAKNTVYLQMNSLKPEDTAVYYCAARQVSVSGHQYGYWGQGTQVTVSS	low polyreactivity
QVQLVESGGGLVQAGGSLRLSCAASGSIFGWNAMGWYRQAPGKERELVAAISSGGSTYYADSVKGRFTISRDNAKNTVSLQMNSLKPEDTAVYYCNAYFQYYDYWGQGTQVTVSS	low polyreactivity
QVQLVESGGGLVQAGGSLRLSCAASGSIFGWNAMGWYRQAPGKERELVASITWSGGRTYYADSVKGRFTISRDNAKNTVYLQMNSLKPEDTAVYYCAARGYTVWDDYWGQGTQVTVSS	high polyreactivity
QVQLVESGGGLVQAGGSLRLSCAASGSIFGWNTMGWYRQAPGKERELVASISRRGGSTHYADSVKGRFTISRDNAKNTVYLQMNSLKPEDTAVYYCAKVRYQGNGGYYWGQGTQVTVSS	high polyreactivity
QVQLVESGGGLVQAGGSLRLSCAASGSIFGWYAMGLYRQAPGKERELVAAITFSSVSTYYADSVKGRFTISRDNAKNTVYLQMNSLKPEVTAVYYCGAVVYYTFDYWVQGTQVTVSS	low polyreactivity
QVQLVESGGGLVQAGGSLRLSCAASGSIFGWYAMGWYRQAPGKERELVADISYIGVSTYYADSVKGRFTISRDNAKNTVYLQMNTLKPEDTAVYYCATYYLLYPIPYGYPRSPEYEYWGQGTQVTVSS	low polyreactivity
QVQLVESGGGLVQAGGSLRLSCAASGSIFGWYAMGWYRQAPGKERELVASIRKSGGSTYYADSVKGRFTISRDNAKNTVYLQMNSLKPEDTAVYYCAAERYKNGAGQRKYAYDYWGQGTQVTVSS	high polyreactivity
QVQLVESGGGLVQAGGSLRLSCAASGSIFGWYAMRSYRQAPGKATELVASISGSGGSTYYADSVKGRFTISRDNAKNTVYLQMNSLKPEDTAVYYCAADYALSSLPFDYWGQGTQVTVSS	high polyreactivity
QVQLVESGGGLVQAGGSLRLSCAASGSIFGYAMGWYRQAPGKERELVAAISFSGVSTYYADSVKGRFTISRDNAKNTVYLQMNSLKPDDTAVYYCATDRFYYRTGYDPYYYWGQGTQVTVSS	low polyreactivity
QVQLVESGGGLVQAGGSLRLSCAASGSIFGYNAMGWYRQAPATERELVATIRNGGITNYADSVKGRFTISRDNAKNTVYLQMNSLKPEDTAVYYCAADVVQYLYYFRLDYWGQGTQVTVSS	low polyreactivity
QVQLVESGGGLVQAGGSLRLSCAASGSIFGYNAMGWYRQAPGKEREFVAAISWSGGRTYYADSVKGRFTISRDNAKNTVYLQMNSLKPEDTAVYYCAAPSRPAPRFDYWGQGTQVTVSS	low polyreactivity
QVQLVESGGGLVQAGGSLRLSCAASGSIFGYNAMGWYRQAPGKERELVAAISYSGGSTYYADSVKWRFTISRDNAKNTVYLQMNSLKPEDTAVYYCNKYIRRYLIYGSWGQGTQVTVSS	high polyreactivity
QVQLVESGGGLVQAGGSLRLSCAASGSIFGYNAMGWYRQAPGKERELVAVITRSDGSTYYADSVKGRFTISRDNAKNTVYLQMNSLKPEDTAVYYCNAETHVYYWGVVIYEYNYWGQGTQVTVSS	low polyreactivity
QVQLVESGGGLVQAGGSLRLSCAASGSIFGYNTMGWYIQAPGKERELVATITRGGSTHYADSVKGRFTISRDNAKNTVYLQMNSLKPEDTAVYYCAATRLSYVRLYRFSQQYYYWGQGTQVTVSS	high polyreactivity
QVQLVESGGGLVQAGGSLRLSCAASGSIFGYYAMGWYRQAPGKEREFVAAISWSGGRTTYADSVKGRFTISRDNAKNTVYLQMNSLKPEDTAVYYCAAAARRKFYYWGQGTQVTVSS	high polyreactivity
QVQLVESGGGLVQAGGSLRLSCAASGSIFGYYAMGWYRQAPGKERELVAAISSGDSTYADSVKGRFTISRDNAKNTVYLQMNSLKPEDTAVYYCAADEYYTFSSFELRRMDYWGQGTQVTVSS	low polyreactivity
QVQLVESGGGLVQAGGSLRLSCAASGSIFGYYAMGWYRQAPGKERELVAAISSGGNTNYADSVKGRFTISRDNAKNTVYLQMNSLKPEDTAVYYCATRARYKRIRYDYWGQGTQVTVSS	high polyreactivity
QVQLVESGGGLVQAGGSLRLSCAASGSIFGYYAMGWYRQAPGKERELVAAISVRGGSTYYADSVKGRFTISRDNAKNTVYLQMNSLKPEDTAVYYCAARISYSLSYWGQGTQVTVSS	high polyreactivity
QVQLVESGGGLVQAGGSLRLSCAASGSIFGYYAMGWYRQAPGKERELVARISYSGGTTYYADSVKGRFTISRDNAKNTVYLQMNSLKPEATAVYYCNARIPYSWRYGYWGQGTQVTVSS	high polyreactivity
QVQLVESGGGLVQAGGSLRLSCAASGSIFGYYAMGWYRQAPGKERELVASISGSGGTTYFADSVKGRFTISRDNAKNTVYLQMNSLKPEDTAVYYCAARRSIYGYPFVTSRRGYWGQGTQVTVSS	high polyreactivity
QVQLVESGGGLVQAGGSLRLSCAASGSIFGYYDMGWYRQAPGKERELVAAISYRGSSTYYADSVKGRFTISRDNAKNTVYLQMNSLKPEDTAVYYCASRYYYSYPPQEDDYWGQGTQVTVSS	high polyreactivity

Sequence	polyreactivity (PSR sort gate)
QVQLVESGGGLVQAGGSLRLSCAASGSIFGYYTMGWYRQAPGKERELVAAITSGGSTNYADSVKGRFTISRDNAKNTVYLQMNSLKPEDTAVYYCAKVSYYPWRYDYWGQGTQVTVSS	low polyreactivity
QVQLVESGGGLVQAGGSLRLSCAASGSIFGYYTMGWYRQAPGKERELVAGIDFITTSTYYADSVKGRFTISRDNAKNTVYLQMNSLKPEDTAVYYCNADPFTGYDYWGQGTQVTVSS	low polyreactivity
QVQLVESGGGLVQAGGSLRLSCAASGSIFGYYTMGWYRQAPGKERELVAGITSTGNTNYADSVKGRFTISRDNAKNTVYLQMNSLKPEDTAVYYCAADSESTWDYGWELEVGYDYWGQGTQVTVSS	low polyreactivity
QVQLVESGGGLVQAGGSLRLSCAASGSIFGYYTMGWYRQAPGKERELVATITSGGSTYYADSVKGRFTISRDNAKNTVYLQMNSLKPEDTAVYYCNADWYWRVYWGQGTQVTVSS	high polyreactivity
QVQLVESGGGLVQAGGSLRLSCAASGSIFHGYAMGWYRQAPGKERELVAAISYTGGRTYYADSVKGRFTISRDNAKNTVYLQMNSLKPEDTAVYYCADDSQLTKFYYWGQGTQVTVSS	high polyreactivity
QVQLVESGGGLVQAGGSLRLSCAASGSIFHGYAMGWYRRAPGKERELVAAITYSGGRTYYADSVKGRFTISRDNAKNTVYLQMNSLKPEDTAVYYCAALTRRVKKYDYWGQGTQVTVSS	high polyreactivity
QVQLVESGGGLVQAGGSLRLSCAASGSIFHHNAMGWYRQAPGKERELVAAISSRSGNTYYADSVKGRFTISRDNAKNTVYLQMNSLKPEDTAVYYCAAGKRLSYSTYDSWGQGTQVTVSS	high polyreactivity
QVQLVESGGGLVQAGGSLRLSCAASGSIFHINAMGWYRQAPGKERELVADISQRGGSTYYADSVKGRVTISRDNAKNTVYLQMNSLKPEDTAVYYCAVVHVFYAVSYFSFYTYEYWGQGTQVTVSS	low polyreactivity
QVQLVESGGGLVQAGGSLRLSCAASGSIFHIYMGWYRQSPGKERELVASNSYRGGTTYYADSVKGRFTISRDNAKNTVYLQMNSLKPEDTAVYDCNVDRYFYHYGRYGHMDYWGQGTQVTVSS	low polyreactivity
QVQLVESGGGLVQAGGSLRLSCAASGSIFHLYLGWYRQAPRKERELVAVIKSSGDSTYYADSVKGRFTISRDNAKNTVYLQMNSMKPEDTAVYYCNARRRGPRYRYCYWGQGTQVTVSS	high polyreactivity
QVQLVESGGGLVQAGGSLRLSCAASGSIFHMNAMGWYRQAPGKERELDASISSDGSTYYADSVKGRFTISRDNAKNTVYLQMNSLKPEVTAVYYCNADSQWALKQLSFDYWGQGTQVTVSS	low polyreactivity
QVQLVESGGGLVQAGGSLRLSCAASGSIFHPNAMGWYRQAPGKERELVAAITKSGGSTYYADSVKGRFTISRDNAKNTVYLQMNSLKPEDTAVYYCAKVSRATVTYDYWGQGTQVTVSS	high polyreactivity
QVQLVESGGGLVQAGGSLRLSCAASGSIFHRYAMGWYRQAPGKEREFVAAISGRGGSTYYADSVKGRFTISRDNAKNSVYLQMNSLKPEDTAVYYCAADSSRFYGRPRYYYWGQGTQVTVSS	high polyreactivity
QVQLVESGGGLVQAGGSLRLSCAASGSIFHTYVMGWYRQAPGKERELVASITRSGGSTYYADSVKGRFTISRDNAMNTVYLQMNSLKPEDTAVYYCAATYRTANHRYYYWGQGTQVTVSS	high polyreactivity
QVQLVESGGGLVQAGGSLRLSCAASGSIFHVYGMGWYRQAPGKEREFVADITSRGTRTYYADSVKGRFTISRDNAKNTVYLQMNSLKPEDTAVYYCNTLVGVDFWLVDYWGQVTQVTVSS	low polyreactivity
QVQLVESGGGLVQAGGSLRLSCAASGSIFHWYAMGWYRQAPGKERELVAAISWSGGSTYYADSVKGRFTISRDNAKNTVYLQRNSLKPEDTAVYYCNKYIRYPFKRYGYWGQGTQVTVSS	high polyreactivity
QVQLVESGGGLVQAGGSLRLSCAASGSIFHYNAMGWYRQAPGKERELVAAITTSGGSTYYADSVKGRFTISRDNAKNTVYLQMNSLKPEDTAVYYCAADLVWTRYFGYAPDYYIEFDYWGQGTQVTVSS	high polyreactivity
QVQLVESGGGLVQAGGSLRLSCAASGSIFHYYAMGWYRQAPGKERELVAAISWSGGRTYYADSVKGRFTISRDNAKNTVYLQMNSLKPEDTAVYYCAADYDGSFNTPYLLDPYDYWGQGTQVTVSS	high polyreactivity
QVQLVESGGGLVQAGGSLRLSCAASGSIFIAYGMGWYRQEPGKERELVAAITVSGGNTYYADSVKGRFTISRDNAKNTVYLQMYSLKPEDTAVYYCADVTYWQDGHRGNYWGQGTQVTVSS	low polyreactivity
QVQLVESGGGLVQAGGSLRLSCAASGSIFIDNAMGWYIQAPGKEREFVAAISKSGTSTYYADSVNGRFTISRDNAMNAVDLQMNSLKPEDTAVYYCAVRRPRPYSNYYYWGQGTQVTVSS	high polyreactivity
QVQLVESGGGLVQAGGSLRLSCAASGSIFIDYAMGWYRQAPGKERELVATISNSGTSTYYADSVKGRFTISRDNAKNTVYLQMNSLKPEDTAVYYCAAEAWPYGDYYWGQGTQVTVSS	low polyreactivity
